Activity (fold suppression) data for one substance are collected here from US20010046966.

For data set [1], the target named is GATA-2 (UniProt O09100). In words: cell_activity. Conditions: NIH3T3 luciferase.
Data set [2] has as its target GATA-3 (UniProt P23772). In words: cell_activity. The settings on record: NIH3T3 luciferase.

Sequence of GATA-3 (P23772 whole entry): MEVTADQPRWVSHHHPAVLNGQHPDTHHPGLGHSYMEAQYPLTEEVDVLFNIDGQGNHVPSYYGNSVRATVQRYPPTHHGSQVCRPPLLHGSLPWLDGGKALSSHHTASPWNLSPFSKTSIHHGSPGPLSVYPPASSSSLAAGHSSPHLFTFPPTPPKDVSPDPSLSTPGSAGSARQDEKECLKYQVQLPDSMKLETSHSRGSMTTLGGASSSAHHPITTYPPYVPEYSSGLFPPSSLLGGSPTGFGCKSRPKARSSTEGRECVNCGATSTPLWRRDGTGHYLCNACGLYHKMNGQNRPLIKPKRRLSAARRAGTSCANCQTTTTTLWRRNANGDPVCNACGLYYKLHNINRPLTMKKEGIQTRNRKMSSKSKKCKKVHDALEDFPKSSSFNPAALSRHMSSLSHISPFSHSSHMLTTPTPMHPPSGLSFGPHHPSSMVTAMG
Sequence of GATA-2 (O09100 whole entry): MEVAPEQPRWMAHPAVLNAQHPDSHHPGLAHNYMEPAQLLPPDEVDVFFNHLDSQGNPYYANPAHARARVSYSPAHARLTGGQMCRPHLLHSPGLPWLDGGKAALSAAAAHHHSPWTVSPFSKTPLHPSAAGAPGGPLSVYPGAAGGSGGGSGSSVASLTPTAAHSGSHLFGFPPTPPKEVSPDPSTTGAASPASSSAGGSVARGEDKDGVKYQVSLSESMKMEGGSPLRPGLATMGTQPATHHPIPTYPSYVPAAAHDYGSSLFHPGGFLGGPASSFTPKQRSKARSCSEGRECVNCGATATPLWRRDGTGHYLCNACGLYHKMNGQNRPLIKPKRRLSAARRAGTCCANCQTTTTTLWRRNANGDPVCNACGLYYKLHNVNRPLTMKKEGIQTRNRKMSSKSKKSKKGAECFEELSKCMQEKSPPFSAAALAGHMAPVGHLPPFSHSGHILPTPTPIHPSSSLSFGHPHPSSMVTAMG

For the substance “PPAR-gamma2 promoter -603 to +62 luciferase reporter”, the activity (fold suppression) in data set [1] and in data set [2] was 5 each time.
